Consider 3 substances from PMC9433928.

Assay [1] deals with GFP10-tagged constitutively active RAC1 L61 mutant (UniProt P63000). Description: split reporter (BiFC, NanoBiT); tripartite split-GFP: GFP10-GTPase mutant and GFP11-tagged partner co-transfected in MRC5 cells stably expressing GFP1-9; fixed 20 h after transfection; percent of reconstituted GFP (rGFP) positive cells by flow cytometry. In general terms: A flow cytometer gives signals particle by particle.

Assay [2] has as its target GFP10-tagged constitutively active CDC42 L61 mutant (UniProt P60953). The description is as above.
Assay [3] concerns the target GFP10-RHOA of the triSFP-RHOA reporter cells (UniProt P61586). The experiment in a line: split reporter (BiFC, NanoBiT); intracellular competition in triSFP-RHOA cells (MRC5_GFP1-9 with doxycycline-induced GFP10-RHOA and GFP11-RBD); mCherry fusions transfected; rGFP fluorescence by flow cytometry in quartiles of mCherry expression.
The target of assay [4] is GFP10-tagged constitutively active RHOA L63 mutant (UniProt P61586). The experiment in a line: split reporter (BiFC, NanoBiT); tripartite split-GFP: GFP10-GTPase mutant and GFP11-tagged partner co-transfected in MRC5 cells stably expressing GFP1-9; fixed 20 h after transfection; percent of reconstituted GFP (rGFP) positive cells by flow cytometry.
For assay [5] the target is unchanged. The assay is described as above. This is another data set of the same source.

Where two headings read alike, the source gives them in different places.

GFP11 tagged PAK-BD (domain or fragment), sequence (Q13153 2-545): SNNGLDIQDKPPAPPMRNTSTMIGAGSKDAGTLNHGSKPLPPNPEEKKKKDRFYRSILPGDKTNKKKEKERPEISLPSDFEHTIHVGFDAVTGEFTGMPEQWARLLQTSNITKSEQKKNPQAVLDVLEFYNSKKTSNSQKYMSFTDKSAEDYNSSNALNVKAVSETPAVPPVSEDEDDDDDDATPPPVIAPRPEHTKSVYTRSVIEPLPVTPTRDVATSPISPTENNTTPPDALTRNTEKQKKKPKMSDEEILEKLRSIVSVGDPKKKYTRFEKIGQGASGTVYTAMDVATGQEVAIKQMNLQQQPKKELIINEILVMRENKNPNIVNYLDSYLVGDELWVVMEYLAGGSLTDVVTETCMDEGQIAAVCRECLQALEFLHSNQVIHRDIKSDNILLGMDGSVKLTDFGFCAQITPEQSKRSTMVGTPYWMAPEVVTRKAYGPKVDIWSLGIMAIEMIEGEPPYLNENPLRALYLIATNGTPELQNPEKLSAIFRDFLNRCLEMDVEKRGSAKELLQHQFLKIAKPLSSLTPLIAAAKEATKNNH
RHOTEKIN effector RHO Binding Domain (RBD) fused to a C-terminal GFP11 tag (domain or fragment), sequence (Q8C6B2 whole entry, the tested form may be a part): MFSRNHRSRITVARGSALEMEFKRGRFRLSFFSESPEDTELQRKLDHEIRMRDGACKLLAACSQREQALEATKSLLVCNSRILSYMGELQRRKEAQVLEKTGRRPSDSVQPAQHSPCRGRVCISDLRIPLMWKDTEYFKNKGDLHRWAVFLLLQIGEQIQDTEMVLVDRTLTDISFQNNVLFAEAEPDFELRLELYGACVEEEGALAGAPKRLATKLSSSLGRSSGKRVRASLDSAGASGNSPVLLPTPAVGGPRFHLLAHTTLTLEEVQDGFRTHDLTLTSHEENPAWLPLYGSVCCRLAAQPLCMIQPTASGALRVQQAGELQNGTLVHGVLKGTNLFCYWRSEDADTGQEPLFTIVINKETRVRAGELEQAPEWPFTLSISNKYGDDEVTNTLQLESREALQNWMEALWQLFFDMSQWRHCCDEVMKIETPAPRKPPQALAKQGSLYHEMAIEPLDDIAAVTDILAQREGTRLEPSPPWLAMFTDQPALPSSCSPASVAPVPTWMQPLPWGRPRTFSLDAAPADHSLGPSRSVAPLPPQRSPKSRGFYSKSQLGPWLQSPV
GFP10-tagged constitutively active RHOA L63 mutant, sequence (P61586 other isoform, or with tags, fused parts or gaps mutant): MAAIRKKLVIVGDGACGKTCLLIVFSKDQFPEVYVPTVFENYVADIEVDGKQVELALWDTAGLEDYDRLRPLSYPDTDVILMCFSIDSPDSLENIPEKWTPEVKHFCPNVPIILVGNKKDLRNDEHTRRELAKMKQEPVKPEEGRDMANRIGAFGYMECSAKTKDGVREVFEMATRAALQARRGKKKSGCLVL
GFP10-tagged constitutively active CDC42 L61 mutant, sequence (P60953 other isoform, or with tags, fused parts or gaps mutant): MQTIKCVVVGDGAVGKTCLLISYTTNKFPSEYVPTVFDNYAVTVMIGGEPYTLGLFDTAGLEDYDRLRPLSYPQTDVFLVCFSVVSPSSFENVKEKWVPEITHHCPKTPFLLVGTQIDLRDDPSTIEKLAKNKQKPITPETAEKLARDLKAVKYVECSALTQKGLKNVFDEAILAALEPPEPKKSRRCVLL
GFP10-RHOA of the triSFP-RHOA reporter cells, sequence (P61586 whole entry, the tested form may be a part): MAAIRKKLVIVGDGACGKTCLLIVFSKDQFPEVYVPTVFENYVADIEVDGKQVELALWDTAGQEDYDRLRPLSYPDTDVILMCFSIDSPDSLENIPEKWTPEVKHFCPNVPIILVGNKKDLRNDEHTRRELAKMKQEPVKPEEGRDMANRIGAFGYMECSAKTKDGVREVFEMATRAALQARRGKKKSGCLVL

“GFP11 tagged PAK-BD (domain or fragment)”: the percent rGFP positive cells in assay [1] was 9.9%; in assay [2] it was 11.8%. As for RBD-mCherry (domain or fragment), the percent decrease of rGFP fluorescence (competition with GFP11-RBD) in assay [3] amounted to 20%. With “RHOTEKIN effector RHO Binding Domain (RBD) fused to a C-terminal GFP11 tag (domain or fragment)”, the percent rGFP positive cells stood at 28% in assay [4] and 25% in assay [5].
